According to patent US20230340152A1 (published 2023):
Substitutions are numbered along the chain they refer to. Names and notes keep the numbering of the source.

Assays:
[1] = biological target: T1, Human CD73 on cells (MDA-MB-231, Jurkat CD73 knock-in, NCI-H322) (human, UniProt P21589 27-549); assay: cell-based or functional assay
T1 sequence: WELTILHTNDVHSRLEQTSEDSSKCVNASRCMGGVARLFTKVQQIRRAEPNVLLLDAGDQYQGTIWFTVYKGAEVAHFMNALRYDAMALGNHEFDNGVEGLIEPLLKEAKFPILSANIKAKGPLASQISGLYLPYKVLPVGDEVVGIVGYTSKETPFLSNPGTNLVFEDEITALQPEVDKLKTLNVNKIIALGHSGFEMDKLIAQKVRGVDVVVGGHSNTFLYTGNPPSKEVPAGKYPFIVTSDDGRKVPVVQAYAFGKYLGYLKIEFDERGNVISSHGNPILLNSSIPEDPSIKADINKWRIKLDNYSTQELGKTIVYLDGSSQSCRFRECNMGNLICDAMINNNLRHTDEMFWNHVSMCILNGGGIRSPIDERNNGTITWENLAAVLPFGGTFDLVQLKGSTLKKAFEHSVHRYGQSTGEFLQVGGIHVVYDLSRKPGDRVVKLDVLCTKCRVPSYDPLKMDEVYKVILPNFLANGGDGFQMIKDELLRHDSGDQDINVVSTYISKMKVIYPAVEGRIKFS

[2] = biological target: T2, Murine CD73 on cells (4T1, Jurkat mCD73 knock-in) (murine, UniProt Q61503 29-551); assay: cell-based or functional assay
T2 sequence (looked up): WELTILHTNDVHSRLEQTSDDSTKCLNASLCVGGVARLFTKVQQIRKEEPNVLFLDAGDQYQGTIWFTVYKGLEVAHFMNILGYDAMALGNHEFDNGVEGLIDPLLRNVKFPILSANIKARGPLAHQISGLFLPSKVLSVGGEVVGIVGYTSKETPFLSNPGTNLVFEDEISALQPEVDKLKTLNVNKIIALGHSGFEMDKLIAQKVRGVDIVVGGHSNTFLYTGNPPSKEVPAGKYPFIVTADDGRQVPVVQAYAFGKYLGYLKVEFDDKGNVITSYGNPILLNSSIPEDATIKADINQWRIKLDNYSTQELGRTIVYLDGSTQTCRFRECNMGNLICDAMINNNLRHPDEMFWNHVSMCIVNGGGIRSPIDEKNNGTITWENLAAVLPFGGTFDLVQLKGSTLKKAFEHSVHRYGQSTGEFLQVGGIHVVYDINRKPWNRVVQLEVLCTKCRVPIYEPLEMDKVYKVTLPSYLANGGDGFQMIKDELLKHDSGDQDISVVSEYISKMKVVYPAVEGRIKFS

[3] = biological target: T3, Cynomolgus CD73 on MK-1 cells (cynomolgus, UniProt A0A2K5V5U7 27-549); assay: flow cytometry on cells
T3 construct: whole, on cells; also called MK-1 (cyno)
T3 sequence: T1 sequence with M199T, T350A, V466I

[4] = biological target: T3, Cynomolgus CD73 on MK-1 cells; assay: flow cytometry, MK-1 cells
Protocol: Binding of MEDI9447 to native CD73 expressed on human, murine, and cynomolgus monkey cell lines was characterized by flow cytometry. The cells were incubated with various concentrations of MEDI9447 and antibody binding was monitored with and fluorophore-labeled anti-human Fc antibody. A plot of the median fluorescence intensity as a function of the MEDI9447 concentration was fitted nonlinearly using a one-site binding isotherm model to calculate the equilibrium dissociation constant.

[5] = biological target: T4, Recombinant soluble wild-type human CD73 with C-terminal 6x-histidine tag (human, UniProt P21589 27-549); assay: SPR (ProteOn), CD73 immobilized on HTG chip
T4 construct: dimer in solution; also called sCD73; WT huCD73
T4 sequence: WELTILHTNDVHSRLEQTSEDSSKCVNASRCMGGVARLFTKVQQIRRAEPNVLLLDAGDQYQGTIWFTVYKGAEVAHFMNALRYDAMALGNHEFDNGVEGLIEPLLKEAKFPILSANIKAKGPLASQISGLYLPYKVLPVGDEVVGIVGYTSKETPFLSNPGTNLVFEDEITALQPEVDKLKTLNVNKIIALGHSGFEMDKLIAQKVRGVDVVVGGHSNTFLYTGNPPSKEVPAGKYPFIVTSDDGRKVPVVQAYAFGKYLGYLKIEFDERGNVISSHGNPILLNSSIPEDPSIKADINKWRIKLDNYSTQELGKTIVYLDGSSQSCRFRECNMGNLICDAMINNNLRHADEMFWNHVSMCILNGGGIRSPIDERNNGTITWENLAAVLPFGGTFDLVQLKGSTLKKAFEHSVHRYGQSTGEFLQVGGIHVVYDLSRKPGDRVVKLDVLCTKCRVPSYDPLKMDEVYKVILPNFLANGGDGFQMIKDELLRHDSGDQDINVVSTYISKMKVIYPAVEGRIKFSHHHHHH

[6] = biological target: T1, Human CD73 on cells (MDA-MB-231, Jurkat …); assay: flow cytometry, Jurkat (CD73 knock-in) / Jurkat

B1: MEDI9447 (antibody, human IgG1, lambda, V domains shown)
VH: EVQLLESGGGLVQPGGSLRLSCAASGFTFSSYAYSWVRQAPGKGLEWVSAISGSGGRTYYADSVKGRFTISRDNSKNTLYLQMNSLRAEDTAVYYCARLGYGRVDEWGRGTLVTVSS
VL: QSVLTQPPSASGTPGQRVTISCSGSLSNIGRNPVNWYQQLPGTAPKLLIYLDNLRLSGVPDRFSGSKSGTSASLAISGLQSEDEADYYCATWDDSHPGWTFGGGTKLTVLG
notes: Human IgG1-TM (L234F, L235E, P331S), lambda light chain; also called clone 10.3 antibody; 73combo3
FabZAP internalization, EC50, MDA-MB-231 [1]: 0.0035 nM
FabZAP internalization, maximum toxicity, MDA-MB-231 [1]: 97%
FabZAP internalization, EC50, 4T1 [2]: 0.0185 nM
FabZAP internalization, maximum toxicity, 4T1 [2]: 97%
Kd [3]: 0.084 nM
Kd [4]: 0.084 nM
koff [5]: 1.94e-05 s⁻¹
kon [5]: 4.63e+06 M⁻¹ s⁻¹
Mean Fluorescence Intensity Ratio (MFIR) [6]: 7.9
